# PMC5525146
# Target: Actin from rabbit muscle (rabbit) (UniProt P68135)
# Test: co-sedimentation
substance,measurement,value
Palld-Ig3 K38/51A double mutant (domain or fragment),percent of protein co-sedimented with F-actin at saturation,20 to 22%
